The numbers were not newly measured in publication PMC2874015, which cites them from elsewhere.

Series [1] addresses c-Jun leucine zipper (Homo sapiens) (UniProt P05412).
Series [2] addresses GCN4 leucine zipper (Saccharomyces cerevisiae) (UniProt P03069).

Sequence of c-Jun leucine zipper (P05412 277-311): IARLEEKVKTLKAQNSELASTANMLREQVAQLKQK
Sequence of GCN4 leucine zipper (P03069 250-277): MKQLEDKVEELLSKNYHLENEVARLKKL

Broadly, the Kd is the constant that tells how readily two partners part at equilibrium. In the case of “c-Jun leucine zipper (from UniProt P05412)”, the Kd in series [1] is 448 µM.

As for “GCN4 leucine zipper (from UniProt P03069)”, the Kd in series [2] was 8 nM.
